# From the supplement of paper PMC7877785
# ± gives the uncertainty stated by the source.
# Assay: self-splicing fitness, log relative to wild type (ln ratio); higher = more splicing; Tetrahymena group I intron in knt gene, E. coli kanamycin selection, DiMSum; sequences stand for … in CUCUCU…GGAGGGAAAAGUUAUCAGGCAUGCACCUGGUAGCUAGUCUUUAAACCAAUAGAUUGCAUCGGUUUAAAAGGCAAGACCGUCAAAUUGCGGGAAAGGGGUCAACAGCCGUUCAGUACCAAGUCUCAGGGGAAACUUUGAGAUGGCCUUGCAAAGGGUAUGGUAAUAAGCUGACGGACAUGGUCCUAACCACGCAGCCAAGUCCUAAGUCAACAGAUCUUCUGUUGAUAUGGAUGCAGUUCACAGACUAAAUGUCGGUCGGGGAAGAUGUAUUCUUCUCAUAAGAUAUAGUCGGACCUCUCCUUAAUGGGAGCUAGCGGAUGAAGUGAUGCAACACUGGAGCCGCUGGGAACUAAUUUGUAUGCGAAAGUAUAUUGAUUAGUUUUGGAGUACUCGUGGUCG
# Procedure, shortened: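 The eight P1ex-region nucleotides of an intron in the knt kanamycin-resistance gene on pET-22b(+) were all randomised and the library put into E. coli BL21(DE3). Six replicate transformations were grown overnight at 37°C or 30°C on LB agar with or without 25 μg/mL kanamycin, together with 100 μg/mL carbenicillin, 50 μM IPTG and 0.2% rhamnose. Colonies were pooled and amplicon-sequenced on an Illumina HiSeq 2500. Fitness from DiMSum is the error-weighted combination of wild-type-normalised replicate fold changes, kanamycin over none.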
Sequence,self-splicing fitness (ln) (30 °C),self-splicing fitness (ln) (37 °C)
GUCGAGCAAUAUUACGGUGC,-2.4 ± 0.16,-0.222 ± 0.13
GUAGAGCAAUAUUACGUAGC,-1.16 ± 0.19,–
AUUGAGCAAUAUUACGCUGA,-3.1 ± 0.36,-2.27 ± 0.29
AGUUAGCAAUAUUACGAUUU,0.0118 ± 0.094,0.175 ± 0.11
UCGCAGCAAUAUUACGGCUA,0.198 ± 0.091,0.317 ± 0.098
UGACAGCAAUAUUACGUGCU,-4.32 ± 0.24,-1.04 ± 0.11
GGCCAGCAAUAUUACGAAAU,-2.92 ± 0.34,-1.04 ± 0.18
ACUUAGCAAUAUUACGCGGC,-2.71 ± 0.25,-1.12 ± 0.23
CAAUAGCAAUAUUACGUCCA,-2.87 ± 0.29,-2.25 ± 0.25
GGGAAGCAAUAUUACGUGGU,-4.31 ± 0.27,-3.33 ± 0.47
GCAGAGCAAUAUUACGAGUC,-2.97 ± 0.25,-2.39 ± 0.32
AAUCAGCAAUAUUACGAAUG,-0.581 ± 0.069,-0.488 ± 0.12
GAAAAGCAAUAUUACGCGGG,-3.37 ± 0.2,-2.21 ± 0.18
AGGUAGCAAUAUUACGUAGA,-3.995 ± 0.028,-2.07 ± 0.036
CCGAAGCAAUAUUACGUGGC,-3.27 ± 0.19,-2.61 ± 0.34
AGAAAGCAAUAUUACGACAC,-0.194 ± 0.11,-0.75 ± 0.13
GGACAGCAAUAUUACGACUU,-0.232 ± 0.085,1.19 ± 0.1
AAUAAGCAAUAUUACGUUCU,-0.338 ± 0.077,0.0226 ± 0.11
GUUCAGCAAUAUUACGUGCU,–,-2.98 ± 0.28
AAUAAGCAAUAUUACGGACA,-0.911 ± 0.13,0.0108 ± 0.14
AGAAAGCAAUAUUACGGCUA,-0.324 ± 0.12,0.117 ± 0.13
ACCCAGCAAUAUUACGUGAG,-0.151 ± 0.037,-0.0922 ± 0.054
GGCGAGCAAUAUUACGACAG,-3.57 ± 0.32,–
CCAAAGCAAUAUUACGGCAA,-3.15 ± 0.27,-2.73 ± 0.25
UAGAAGCAAUAUUACGACUU,-0.772 ± 0.11,-0.183 ± 0.17
CGUAAGCAAUAUUACGCGUC,-3.79 ± 0.21,-2.87 ± 0.19

Sequence,self-splicing fitness (ln) (30 °C),self-splicing fitness (ln) (37 °C)
CGUAAGCAAUAUUACGUCGA,-2.94 ± 0.21,-3.07 ± 0.2
GAUGAGCAAUAUUACGCUUU,-3.32 ± 0.21,-3.79 ± 0.33
CCAGAGCAAUAUUACGCCGC,–,-0.773 ± 0.45
ACACAGCAAUAUUACGCCAG,-2.45 ± 0.1,-1.13 ± 0.13
CUACAGCAAUAUUACGCAAA,-3.36 ± 0.24,-3.49 ± 0.25
GUGGAGCAAUAUUACGACUA,–,-0.509 ± 0.37
AAGCAGCAAUAUUACGAUUG,-2.54 ± 0.13,-1.9 ± 0.14
CAAAAGCAAUAUUACGUGCA,-2.95 ± 0.12,-1.96 ± 0.12
GUACAGCAAUAUUACGGCUC,0.189 ± 0.083,1.05 ± 0.097
CUUAAGCAAUAUUACGCUGA,-3.94 ± 0.39,-1.17 ± 0.25
UACGAGCAAUAUUACGCGUU,-1.67 ± 0.2,-3.64 ± 0.42
UAGAAGCAAUAUUACGCCUA,-0.42 ± 0.13,0.0572 ± 0.14
CCAUAGCAAUAUUACGCUUA,-2.56 ± 0.26,-3.5 ± 0.33
GACAAGCAAUAUUACGAGCG,-1 ± 0.074,-0.88 ± 0.088
UACUAGCAAUAUUACGUAAC,-2.8 ± 0.17,-3.33 ± 0.42
CACCAGCAAUAUUACGUGCC,-3.42 ± 0.27,-1.27 ± 0.46
GUGUAGCAAUAUUACGCGGA,–,-1.54 ± 0.36
CACAAGCAAUAUUACGCCUA,-1.01 ± 0.091,-0.204 ± 0.085
AACAAGCAAUAUUACGUGAU,-2.2 ± 0.069,-1.46 ± 0.08
CUAAAGCAAUAUUACGUCCA,-3.01 ± 0.19,-2.79 ± 0.31
ACUUAGCAAUAUUACGUAUA,-3.22 ± 0.14,-2.41 ± 0.16
UUAUAGCAAUAUUACGCCGA,-0.888 ± 0.2,0.064 ± 0.25
UCCAAGCAAUAUUACGCGCC,-3.47 ± 0.27,-2.31 ± 0.32
CUCUAGCAAUAUUACGACGU,–,-3.03 ± 0.22
CUAUAGCAAUAUUACGUUGC,-2.61 ± 0.32,-2.37 ± 0.32
UUCAAGCAAUAUUACGUGGC,-3.8 ± 0.19,-1.83 ± 0.13

Sequence,self-splicing fitness (ln) (30 °C),self-splicing fitness (ln) (37 °C)
UUGAAGCAAUAUUACGCGAU,-1.96 ± 0.34,–
AAGGAGCAAUAUUACGACUA,-1.51 ± 0.17,-0.705 ± 0.27
CGGUAGCAAUAUUACGGCCU,-0.555 ± 0.12,-0.911 ± 0.12
GCCGAGCAAUAUUACGCACC,-1.96 ± 0.23,-0.483 ± 0.21
CUAGAGCAAUAUUACGGUGG,-0.455 ± 0.06,-0.563 ± 0.089
AAAAAGCAAUAUUACGCAAC,-2.16 ± 0.15,-1.99 ± 0.24
ACUCAGCAAUAUUACGAGUG,-1.59 ± 0.081,-0.296 ± 0.11
GGGCAGCAAUAUUACGGCGC,-0.77 ± 0.11,0.0143 ± 0.14
AUGCAGCAAUAUUACGAUGA,-1.93 ± 0.16,-1.04 ± 0.14
CGGUAGCAAUAUUACGACCG,-2.88 ± 0.36,-2.07 ± 0.42
CCGUAGCAAUAUUACGCCUC,-1.88 ± 0.44,-1.82 ± 0.35
UUGCAGCAAUAUUACGUGAC,-1.55 ± 0.11,-0.799 ± 0.13
CUCAAGCAAUAUUACGCUCG,–,-0.979 ± 0.33
CACAAGCAAUAUUACGACGU,-2.15 ± 0.086,-0.614 ± 0.077
UCUCAGCAAUAUUACGGGGU,-4.46 ± 0.37,-2.8 ± 0.25
AAGGAGCAAUAUUACGGCCC,-2.25 ± 0.26,-1.37 ± 0.34
CGACAGCAAUAUUACGACCU,-1.56 ± 0.099,0.317 ± 0.11
UAAUAGCAAUAUUACGACAG,-2.3 ± 0.19,-0.262 ± 0.17
CCCUAGCAAUAUUACGGAAC,-4.39 ± 0.43,-2.85 ± 0.4
CCCAAGCAAUAUUACGACGU,-2.11 ± 0.13,-2.43 ± 0.2
UUUUAGCAAUAUUACGGCCA,-1.57 ± 0.19,-0.0772 ± 0.19
CGGAAGCAAUAUUACGGGAG,-2.37 ± 0.1,-2.02 ± 0.17
CUCCAGCAAUAUUACGGAAA,-2.25 ± 0.13,-1.55 ± 0.12
CUUUAGCAAUAUUACGUCUC,-2.64 ± 0.24,-3.21 ± 0.3
ACACAGCAAUAUUACGUUUG,-2.67 ± 0.067,-1.59 ± 0.081
CUUUAGCAAUAUUACGGACC,–,-1.83 ± 0.41
